Source: patent publication US20080292639A1 (Amgen, published 2008)
Where “and” joins values, the source holds several entries; their conditions need not be identical. Equal values may be shown once.

B1: 2.1 chimera (murine/human chimeric form of antibody 2.1) (antibody, V domains shown)
VH: QVTLKESGPGILKPSQTLSLTCSFSGFSLRTSGMGVGWIRQPSGKGLEWLAHIWWDDDKSYNPSLKSQLTISKDTSRNQVFLKITSVDTADTATYYCARRNYYYDDYFAYWGQGTTLTVSS
VL: DVLMTQTPLSLPVSLGDQASISCRSSQSIVHSNGNTYLEWYLQKPGQSPKLLIYKVSNRFSGVPDRFSGSGSGTDFTLKISRVEAEDLGVYYCFQGSHVPLTFGAGTKLELK
notes: also called chimera 2.1; (CHO) 2.1 Chimera (control)
B2: 2.1 D (antibody, human IgG1, kappa)
heavy: not shown
light: DVVMTQSPLSLPVTLGQPASISCRSSQSIVHSNGNTYLEWYLQRPGQSPQLLIYKVSNRFSGVPDRFSGSGSGTDFTLKISRVEAEDVGVYYCFQGSHVPLTFGGGTKVEIKRTVAAPSVFIFPPSDEQLKSGTASVVCLLNNFYPREAKVQWKVDNALQSGNSQESVTEQDSKDSTYSLSSTLTLSKADYEKHKVYACEVTHQGLSSPVTKSFNRGEC
notes: Humanized IgG; also called 2.1 D (K5R)
B3: 2.1 L (antibody, human IgG1, kappa)
heavy: not shown
light: DVLMTQSPLSLPVTLGQPASISCRSSQSIVHSNGNTYLEWYLQRPGQSPKLLIYKVSNRFSGVPDRFSGSGSGTDFTLKISRVEAEDVGVYYCFQGSHVPLTFGAGTKLEIKRTVAAPSVFIFPPSDEQLKSGTASVVCLLNNFYPREAKVQWKVDNALQSGNSQESVTEQDSKDSTYSLSSTLTLSKADYEKHKVYACEVTHQGLSSPVTKSFNRGEC
notes: Humanized IgG
B4: 2.1 K (antibody, human IgG1, kappa, V domains shown)
VH: QVTLKESGPALVKPTQTLTLTCTFSGFSLRTSGMGVGWIRQPPGKGLEWLAHIWWDDDKSYNPSLKSQLTISKDTSKNQVVLTMTNMDPVDTATYYCARRNYYYDDYFAYWGQGTTLTVSS
VL: DVLMTQSPLSLPVTLGQPASISCRSSQSIVHSNGNTYLEWYLQRPGQSPKLLIYKVSNRFSGVPDRFSGSGSGTDFTLKISRVEAEDVGVYYCFQGSHVPLTFGAGTKLEIKR
B5: 2.1 E K5 (antibody)
heavy: not shown
light: DVVMTQSPLSLPVTLGQPASISCRSSQSIVHSNGNTYLEWYLQKPGQSPRLLIYKVSNRFSGVPDRFSGSGSGTDFTLKISRVEAEDVGVYYCFQGSHVPLTFGGGTKVEIKRTVAAPSVFIFPPSDEQLKSGTASVVCLLNNFYPREAKVQWKVDNALQSGNSQESVTEQDSKDSTYSLSSTLTLSKADYEKHKVYACEVTHQGLSSPVTKSFNRGEC
notes: Humanized IgG
B6: 2.1 B (antibody, human IgG1, kappa, V domains shown)
VH: QVTLRESGPALVKPTQTLTLTCTFSGFSLRTSGMGVGWIRQPPGKALEWLAHIWWDDDKSYNPSLKSQLTISKDTSKNQVVLTMTNMDPVDTATYYCARRNYYYDDYFAYWGQGTLVTVSS
VL: DVVMTQSPLSLPVTLGQPASISCRSSQSIVHSNGNTYLEWFVQRPGQSPRVLIYKVSNRFSGVPDRFSGSGSGTDFTLKISRVEAEDVGVYYCFQGSHVPLTFGGGTKLEIKR
notes: Humanized IgG; also called 2.1 B (K5R)
B7: 2.1 G (also described as 2.1 GK5R) (antibody, human IgG1, kappa)
heavy: not shown
light: DIVMTQSPLSLPVTPGEPASISCRSSQSIVHSNGNTYLEWYLQKPGQSPRLLIYKVSNRFSGVPDRFSGSGSGTDFTLKISRVEAEDVGVYYCFQGSHVPLTFGGGTKVEIKRTVAAPSVFIFPPSDEQLKSGTASVVCLLNNFYPREAKVQWKVDNALQSGNSQESVTEQDSKDSTYSLSSTLTLSKADYEKHKVYACEVTHQGLSSPVTKSFNRGEC
notes: Humanized IgG
B8: 2.1 E (antibody, human IgG1, kappa)
heavy: not shown
light: DVVMTQSPLSLPVTLGQPASISCRSSQSIVHSNGNTYLEWYLQKPGQSPRLLIYKVSNRFSGVPDRFSGSGSGTDFTLKISRVEAEDVGVYYCFQGSHVPLTFGGGTKVEIKRTVAAPSVFIFPPSDEQLKSGTASVVCLLNNFYPREAKVQWKVDNALQSGNSQESVTEQDSKDSTYSLSSTLTLSKADYEKHKVYACEVTHQGLSSPVTKSFNRGEC
notes: Humanized IgG; also called 2.1 E (K5R); 2.1E.K5R
B9: 2.1 F (antibody, human IgG1, kappa)
heavy: not shown
light: DIVMTQSPLSLPVTPGEPASISCRSSQSIVHSNGNTYLEWYLQRPGQSPQLLIYKVSNRFSGVPDRFSGSGSGTDFTLKISRVEAEDVGVYYCFQGSHVPLTFGGGTKVEIKRTVAAPSVFIFPPSDEQLKSGTASVVCLLNNFYPREAKVQWKVDNALQSGNSQESVTEQDSKDSTYSLSSTLTLSKADYEKHKVYACEVTHQGLSSPVTKSFNRGEC
notes: Humanized IgG; also called 2.1 F (K5R)
B10: 2.1 G K5 (antibody, human IgG1, kappa)
heavy: not shown
light: DIVMTQSPLSLPVTPGEPASISCRSSQSIVHSNGNTYLEWYLQKPGQSPRLLIYKVSNRFSGVPDRFSGSGSGTDFTLKISRVEAEDVGVYYCFQGSHVPLTFGGGTKVEIKRTVAAPSVFIFPPSDEQLKSGTASVVCLLNNFYPREAKVQWKVDNALQSGNSQESVTEQDSKDSTYSLSSTLTLSKADYEKHKVYACEVTHQGLSSPVTKSFNRGEC
notes: Humanized IgG
B11: 2.1 J (antibody, human IgG1, kappa, V domains shown)
VH: QVTLKESGPALVKPTQTLTLTCTFSGFSLRTSGMGVGWIRQPPGKALEWLAHIWWDDDKSYNPSLKSQLTISKDTSKNQVVLTMTNMDPVDTATYYCARRNYYYDDYFAYWGQGTLVTVSS
VL: DVVMTQSPLSLPVTLGQPASISCRSSQSIVHSNGNTYLEWFQQRPGQSPRRLIYKVSNRFSGVPDRFSGSGSGTDFTLKISRVEAEDVGVYYCFQGSHVPLTFGQGTKLEIKR
B12: 2.1 I (also described as 2.1 I K5R) (antibody, human IgG1, kappa, V domains shown)
VH: QVTLRESGPALVKPTQTLTLTCTFSGFSLRTSGMGVGWIRQPPGKALEWLAHIWWDDDKSYNPSLKSQLTISKDTSKNQVVLTMTNMDPVDTATYYCARRNYYYDDYFAYWGQGTLVTVSS
VL: DIVMTQSPLSLPVTPGEPASISCRSSQSIVHSNGNTYLEWYLQKPGQSPQLLIYKVSNRFSGVPDRFSGSGSGTDFTLKISRVEAEDVGVYYCFQGSHVPLTFGGGTKVEIKR
notes: Humanized IgG
B13: 2.1 C (antibody, human IgG1, kappa)
heavy: not shown
light: DVVMTQSPLSLPVTLGQPASISCRSSQSIVHSNGNTYLEWYLQRPGQSPQLLIYKVSNRFSGVPDRFSGSGSGTDFTLKISRVEAEDVGVYYCFQGSHVPLTFGQGTKLEIKRTVAAPSVFIFPPSDEQLKSGTASVVCLLNNFYPREAKVQWKVDNALQSGNSQESVTEQDSKDSTYSLSSTLTLSKADYEKHKVYACEVTHQGLSSPVTKSFNRGEC
notes: Humanized IgG; also called 2.1 C (K5R)

Key:
[1] = target: T1, human Aβ42 fibrils (human, UniProt P05067 672-713); test: BIAcore, antibody injected over immobilized Aβ fibrils
T1 construct: domain: Aβ42; Aggregated (fibrillar) form; also called Fibrillar Aβ42; Aβ42 aggregate
T1 sequence (P05067 672-713 limits assumed): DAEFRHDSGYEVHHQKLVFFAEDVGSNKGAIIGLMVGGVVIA
Method: (§1) Preparation of BIacore Chip Surfaces: Immobilization of Proteins to a Biacore sensor chip (CM5) was performed according to manufacturer's instructions. Briefly, carboxyl groups on the sensor chip surfaces were activated by injecting 60 μL of a mixture containing 0.2 M N-ethyl-N′-(dimethylaminopropyl)carbodiimide (EDC) and 0.05 M N-hydroxysuccinimide (NHS). Specific surfaces were obtained by injecting rProtein G (Pierce), goat anti-mouse Fc (Jackson Immuno Research Lab) or Aβ aggregates diluted in 10 mM acetate, pH 4.0 at concentrations between 5 and 20 μg/mL. Excess reactive groups on the surfaces were deactivated by injecting 60 μL of 1 M ethanolamine. Final immobilized levels were about 10000 resonance units (RU) for the Protein G and anti-mouse Fc surfaces, and 400 RU for the Aβ aggregates surfaces. A blank, mock-coupled reference surface was also prepared on the sensor chips for background subtraction.
(§2) Kinetic analysis of antibodies binding to immobilized Aβ aggregates: Antibodies were diluted in PBS+0.005% P-20+0.1 mg/mL BSA from 100 nM to 0.2 nM. The samples at each concentration were injected over the immobilized Aβ aggregate surfaces, as well as over a blank surface for background subtraction. After a 15-minute dissociation, the surface was regenerated by injecting 8 mM glycine, pH 3.0, and 1 M NaCl for 30 seconds.
(§3) The kinetic analysis assay as described above was repeated using various humanized versions of anti-Aβ antibodies (2.1 chimera, 2.1 B, 2.1 C, 2.1 D, 2.1 E, 2.1 F, 2.1 G, 2.1 E.K5, 2.1E.K5R, 2.1 G.K5, 2.1 G.K5R, 2.1 I.K5R and 2.1 L).

[2] = target: T2, human Aβ40 fibrils (human, UniProt P05067 672-711); test: as above
T2 construct: domain: Aβ40; Aggregated (fibrillar) form; also called Fibrillar Aβ40; Aβ40 aggregate
T2 sequence (P05067 672-711 limits assumed): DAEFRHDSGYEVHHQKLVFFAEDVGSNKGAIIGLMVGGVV
Method: as §1, §2, §3

[3] = target: native amyloid plaques in unfixed brain sections of Tg2576 APP transgenic mice (human, UniProt P05067 672-713, limits assumed); test: cell-based or functional assay
native amyloid plaques in unfixed brain sections of Tg2576 APP transgenic mice, sequence (P05067 672-713 limits assumed): as the sequence (P05067 672-713 limits assumed) above

[4] = target: T1, human Aβ42 fibrils; test: ELISA on plate-dried fibrils, time-resolved europium fluorescence
Method: (§4) The fibrils (Aβ or collagen) were diluted to 10 μg/ml in water and mixed thoroughly. The solution was aliquoted into the wells of a microtiter plate (Immulon-2; VWR; Cat # 62404-972) at 50 μl per well (resulting in 0.5 μg fibrils/well final). The plate was dried overnight by being placed uncovered in a 37° C. incubator.
(§5) The wells were blocked with 200 μl of blocking solution and incubated for ≧1 hour at room temperature (RT) with shaking. The blocking solution was flicked out and gently dried on a paper towel. 100 μl of primary antibody diluted in PBS containing 10% blocking solution was added to each well and the plate was incubated at RT for 1 hour with shaking. The plate was washed with 5-10× in TBS, pH 7.5+0.05% Tween 20. 100 μl of secondary antibodies (each diluted 1-2,000-fold in PBS) was added to each well and the plate was incubate at RT for 1 hour with shaking. The plate was washed with 5-10× in TBS, pH 7.5+0.05% Tween 20. 100 μl Streptavidin-Europium reagent (1-1,000-fold dilution) was added and the plated was incubated at RT for 45 minutes with shaking. The plate was washed 5-10× in TBS, pH 7.5+0.05% Tween 20. 120 μl Enhance Solution was added and the plate was incubated at RT for 15-30 minutes with shaking. The plate was read on a Victor TRF plate reader (Europium program).

[5] = target: T2, human Aβ40 fibrils; test: as above
Method: as §4, §5

[6] = target: T3, human Aβ40 monomer (human, UniProt P05067 672-711); test: ELISA on plate-coated monomer, time-resolved europium fluorescence
T3 construct: domain: Aβ40; Monomeric form
T3 sequence (P05067 672-711 limits assumed): as the sequence (P05067 672-711 limits assumed) above
Method: (§6) The same techniques were used for the coating of the microtiter plate for monomer ELISA. The fibrils Aβ monomer were diluted to 2.5 μg/ml in Coating buffer and mixed thoroughly. The solution was aliquoted into the wells of a microtiter plate [Immulon-2; VWR; Cat.#62404-972] at 100 μl per well. The plate was sealed and incubated overnight at 4° C. The plate was washed 5-10× to remove Aβ coating solution prior to starting the assay.
as §5

[7] = target: T4, human Aβ42 monomer (human, UniProt P05067 672-713); test: as above
T4 construct: domain: Aβ42; Monomeric form
T4 sequence (P05067 672-713 limits assumed): as the sequence (P05067 672-713 limits assumed) above
Method: as §6, §5

[8] = target: amyloid plaques in unfixed brain sections of a human AD patient (human, UniProt P05067 672-713); test: cell-based or functional assay
amyloid plaques in unfixed brain sections of a human AD patient, sequence (P05067 672-713): as the sequence (P05067 672-713 limits assumed) above

Binder | koff [1] | koff [2] | EC50 (µg/ml), ex vivo phagocytosis [3] | other results
B1 | 6.9e-05 s⁻¹ and 6.3e-05 s⁻¹ | 0.00012 s⁻¹ and 5.9e-05 s⁻¹ | 0.8 µg/mL | EC50 (µg/ml), ex vivo phagocytosis; 2.1 Chimera (293) [3]: 1.08 µg/mL; EC50 (µg/ml), ex vivo phagocytosis; 2.1 Chimera (CHO) [3]: 0.7 µg/mL; EC50 [4]: 0.072 nM; EC50 [5]: 0.06 nM; EC50 [6]: 0.031 nM; EC50 [7]: 0.034 nM
B2 | 5.5e-05 s⁻¹ | 0.00012 s⁻¹ | – | –
B3 | < 5e-05 s⁻¹ | < 5e-05 s⁻¹ | 0.82 µg/mL and 0.73 µg/mL | –
B4 | – | – | 0.84 µg/mL | EC50 of phagocytosis by IC-21 cells on human AD brain sections [8]: 0.76 µg/mL
B5 | < 5e-05 s⁻¹ | < 5e-05 s⁻¹ | 3.94 µg/mL | –
B6 | 0.00019 s⁻¹ | 0.00024 s⁻¹ | – | –
B7 | < 5e-05 s⁻¹ | 0.00011 s⁻¹ and < 5e-05 s⁻¹ | 0.94 µg/mL | –
B8 | < 5e-05 s⁻¹ | 0.00011 s⁻¹ and < 5e-05 s⁻¹ | 2.23 µg/mL | –
B9 | 0.00012 s⁻¹ | 0.00015 s⁻¹ | – | –
B10 | < 5e-05 s⁻¹ | < 5e-05 s⁻¹ | 1.78 µg/mL | –
B11 | – | – | 1.22 µg/mL | –
B12 | < 5e-05 s⁻¹ | < 5e-05 s⁻¹ | 0.69 µg/mL | –
B13 | < 5e-05 s⁻¹ | 0.00015 s⁻¹ | – | –
